Source: patent US20190276496A1 (FUNDACI N PARA LA INVESTIGACI N M DICA APLICADA, published 2019)
[ ]: non-standard residue; d: D form.

T1: Foxp3 in murine CD25+ Treg cells (mouse, UniProt Q99JB6 1-417)
T1 sequence (looked up): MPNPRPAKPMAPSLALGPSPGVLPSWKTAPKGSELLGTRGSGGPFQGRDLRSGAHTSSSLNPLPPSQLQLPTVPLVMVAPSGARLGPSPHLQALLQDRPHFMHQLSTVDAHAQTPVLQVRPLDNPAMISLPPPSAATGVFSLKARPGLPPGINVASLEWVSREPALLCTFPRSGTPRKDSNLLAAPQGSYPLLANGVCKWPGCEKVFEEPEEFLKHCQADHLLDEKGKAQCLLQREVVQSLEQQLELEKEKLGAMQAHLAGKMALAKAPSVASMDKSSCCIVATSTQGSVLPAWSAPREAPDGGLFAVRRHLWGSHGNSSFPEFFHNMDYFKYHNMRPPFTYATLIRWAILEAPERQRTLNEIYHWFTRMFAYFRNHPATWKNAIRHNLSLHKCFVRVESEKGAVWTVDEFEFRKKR

B1: peptide of SEQ ID NO: 41 (peptide)
peptide: Ac-GRAFQAFRKMWPFFAM-NH2
B2: peptide of SEQ ID NO: 13 (peptide)
peptide: Ac-GRAFQSFRKMWPFFAM-NH2
B3: peptide of SEQ ID NO: 8 (peptide)
peptide: RYFQSFRKMWPFFAM
B4: peptide of SEQ ID NO: 43 (peptide)
peptide: Ac-GR[dA]FQ[dA]FRKMWPFFAM-NH2
SMILES: CSCC[C@H](NC(=O)[C@H](C)NC(=O)[C@H](Cc1ccccc1)NC(=O)[C@H](Cc1ccccc1)NC(=O)[C@@H]1CCCN1C(=O)[C@H](Cc1c[nH]c2ccccc12)NC(=O)[C@H](CCSC)NC(=O)[C@H](CCCCN)NC(=O)[C@H](CCCNC(=N)N)NC(=O)[C@H](Cc1ccccc1)NC(=O)[C@@H](C)NC(=O)[C@H](CCC(N)=O)NC(=O)[C@H](Cc1ccccc1)NC(=O)[C@@H](C)NC(=O)[C@H](CCCNC(=N)N)NC(=O)CNC(C)=O)C(N)=O
B5: peptide of SEQ ID NO: 52 (peptide)
peptide: cyclo(R[dA]FQAFRKMWPFFAM)
SMILES: CSCC[C@@H]1NC(=O)[C@H](C)NC(=O)[C@H](Cc2ccccc2)NC(=O)[C@H](Cc2ccccc2)NC(=O)[C@@H]2CCCN2C(=O)[C@H](Cc2c[nH]c3ccccc23)NC(=O)[C@H](CCSC)NC(=O)[C@H](CCCCN)NC(=O)[C@H](CCCNC(=N)N)NC(=O)[C@H](Cc2ccccc2)NC(=O)[C@H](C)NC(=O)[C@H](CCC(N)=O)NC(=O)[C@H](Cc2ccccc2)NC(=O)[C@@H](C)NC(=O)[C@H](CCCNC(=N)N)NC1=O
B6: peptide of SEQ ID NO: 40 (peptide)
peptide: Ac-GRDFQSFRKMW[dA]FFAM-NH2
SMILES: CSCC[C@H](NC(=O)[C@H](C)NC(=O)[C@H](Cc1ccccc1)NC(=O)[C@H](Cc1ccccc1)NC(=O)[C@@H](C)NC(=O)[C@H](Cc1c[nH]c2ccccc12)NC(=O)[C@H](CCSC)NC(=O)[C@H](CCCCN)NC(=O)[C@H](CCCNC(=N)N)NC(=O)[C@H](Cc1ccccc1)NC(=O)[C@H](CO)NC(=O)[C@H](CCC(N)=O)NC(=O)[C@H](Cc1ccccc1)NC(=O)[C@H](CC(=O)O)NC(=O)[C@H](CCCNC(=N)N)NC(=O)CNC(C)=O)C(N)=O
B7: peptide of SEQ ID NO: 42 (peptide)
peptide: H-RAFQAFRKMWPFFAM-OH
B8: peptide of SEQ ID NO: 53 (peptide)
peptide: cyclo(R[dA]FQAFRKMWPFFAM)
SMILES: CSCC[C@@H]1NC(=O)[C@H](C)NC(=O)[C@H](Cc2ccccc2)NC(=O)[C@H](Cc2ccccc2)NC(=O)[C@@H]2CCCN2C(=O)[C@H](Cc2c[nH]c3ccccc23)NC(=O)[C@H](CCSC)NC(=O)[C@H](CCCCN)NC(=O)[C@H](CCCNC(=N)N)NC(=O)[C@H](Cc2ccccc2)NC(=O)[C@H](C)NC(=O)[C@H](CCC(N)=O)NC(=O)[C@H](Cc2ccccc2)NC(=O)[C@@H](C)NC(=O)[C@H](CCCNC(=N)N)NC1=O
B9: peptide of SEQ ID NO: 21 (peptide)
peptide: RDFQNFRKMWPFFAM
B10: peptide of SEQ ID NO: 12 (peptide)
peptide: RKFQSFRKMWPFFAM
B11: peptide of SEQ ID NO: 6 (peptide)
peptide: H-R[dA]FQSFRKMWPFFAM-OH
B12: peptide of SEQ ID NO: 37 (peptide)
peptide: RDFQSFRKMWKFFAM
B13: peptide of SEQ ID NO: 35 (peptide)
peptide: RDFQSFRKMWYFFAM
B14: peptide of SEQ ID NO: 54 (peptide)
peptide: cyclo(R[dA]FQAFRKMWPFFAM)
SMILES: CSCC[C@@H]1NC(=O)[C@H](C)NC(=O)[C@H](Cc2ccccc2)NC(=O)[C@H](Cc2ccccc2)NC(=O)[C@@H]2CCCN2C(=O)[C@H](Cc2c[nH]c3ccccc23)NC(=O)[C@H](CCSC)NC(=O)[C@H](CCCCN)NC(=O)[C@H](CCCNC(=N)N)NC(=O)[C@H](Cc2ccccc2)NC(=O)[C@H](C)NC(=O)[C@H](CCC(N)=O)NC(=O)[C@H](Cc2ccccc2)NC(=O)[C@@H](C)NC(=O)[C@H](CCCNC(=N)N)NC1=O
B15: peptide of SEQ ID NO: 31 (peptide)
peptide: RDFQSFRKMWRFFAM
B16: peptide of SEQ ID NO: 49 (peptide)
peptide: RDFQSFRKMWPFFAM
modifications: head-to-tail cyclic: linker L is C(=O) between the N-terminal amino group of residue 1 and the alpha carbon of residue 15
B17: peptide of SEQ ID NO: 18 (peptide)
peptide: RDLQSFRKMWPFFAM
B18: peptide of SEQ ID NO: 33 (peptide)
peptide: RDFQSFRKMWVFFAM
B19: peptide of SEQ ID NO: 17 (peptide)
peptide: RDYQSFRKMWPFFAM
B20: peptide of SEQ ID NO: 7 (peptide)
peptide: RSFQSFRKMWPFFAM
B21: peptide of SEQ ID NO: 44 (peptide)
peptide: Ac-GRAFQSFRKMWAFFAM-NH2
B22: peptide of SEQ ID NO: 24 (peptide)
peptide: RDFQYFRKMWPFFAM
B23: peptide of SEQ ID NO: 25 (peptide)
peptide: RDFQKFRKMWPFFAM
B24: peptide of SEQ ID NO: 39 (peptide)
peptide: Ac-GRDFQ[dA]FRKMWPFFAM-NH2
SMILES: CSCC[C@H](NC(=O)[C@H](C)NC(=O)[C@H](Cc1ccccc1)NC(=O)[C@H](Cc1ccccc1)NC(=O)[C@@H]1CCCN1C(=O)[C@H](Cc1c[nH]c2ccccc12)NC(=O)[C@H](CCSC)NC(=O)[C@H](CCCCN)NC(=O)[C@H](CCCNC(=N)N)NC(=O)[C@H](Cc1ccccc1)NC(=O)[C@@H](C)NC(=O)[C@H](CCC(N)=O)NC(=O)[C@H](Cc1ccccc1)NC(=O)[C@H](CC(=O)O)NC(=O)[C@H](CCCNC(=N)N)NC(=O)CNC(C)=O)C(N)=O
B25: peptide of SEQ ID NO: 32 (peptide)
peptide: RDFQSFRKMWNFFAM
B26: peptide of SEQ ID NO: 23 (peptide)
peptide: RDFQEFRKMWPFFAM
B27: peptide of SEQ ID NO: 16 (peptide)
peptide: RDWQSFRKMWPFFAM
B28: peptide of SEQ ID NO: 28 (peptide)
peptide: RDFQSFRHMWPFFAM
B29: peptide of SEQ ID NO: 51 (peptide)
peptide: cyclo(R[dA]FQAFRKMWPFFAM)
SMILES: CSCC[C@@H]1NC(=O)[C@H](C)NC(=O)[C@H](Cc2ccccc2)NC(=O)[C@H](Cc2ccccc2)NC(=O)[C@@H]2CCCN2C(=O)[C@H](Cc2c[nH]c3ccccc23)NC(=O)[C@H](CCSC)NC(=O)[C@H](CCCCN)NC(=O)[C@H](CCCNC(=N)N)NC(=O)[C@H](Cc2ccccc2)NC(=O)[C@H](C)NC(=O)[C@H](CCC(N)=O)NC(=O)[C@H](Cc2ccccc2)NC(=O)[C@@H](C)NC(=O)[C@H](CCCNC(=N)N)NC1=O
B30: peptide of SEQ ID NO: 22 (peptide)
peptide: RDFQWFRKMWPFFAM
B31: peptide of SEQ ID NO: 29 (peptide)
peptide: RDFQSFRRMWPFFAM
B32: peptide of SEQ ID NO: 38 (peptide)
peptide: Ac-GRDFQSFRKMWAFFA[dM]-NH2
SMILES: CSCC[C@H](NC(=O)[C@H](CCCCN)NC(=O)[C@H](CCCNC(=N)N)NC(=O)[C@H](Cc1ccccc1)NC(=O)[C@H](CO)NC(=O)[C@H](CCC(N)=O)NC(=O)[C@H](Cc1ccccc1)NC(=O)[C@H](CC(=O)O)NC(=O)[C@H](CCCNC(=N)N)NC(=O)CNC(C)=O)C(=O)N[C@@H](Cc1c[nH]c2ccccc12)C(=O)N[C@@H](C)C(=O)N[C@@H](Cc1ccccc1)C(=O)N[C@@H](Cc1ccccc1)C(=O)N[C@@H](C)C(=O)N[C@H](CCSC)C(N)=O
B33: peptide of SEQ ID NO: 9 (peptide)
peptide: RWFQSFRKMWPFFAM
B34: peptide of SEQ ID NO: 20 (peptide)
peptide: RDFQRFRKMWPFFAM
B35: peptide of SEQ ID NO: 11 (peptide)
peptide: RNFQSFRKMWPFFAM

molecular target: T1, Foxp3 in murine CD25+ Treg cells; assay: cell-based or functional assay

Binder	IC50 (µM) of inhibition of Treg activity, in vitro Treg suppression assay (murine Tconv + Treg, anti-CD3, [3H]-thymidine)
B1	1.9 µM
B2	12.5 µM

molecular target: human FOXP3 tagged with 6 histidines at the C terminus (human) (UniProt Q9BZS1); assay: SPR (ProteOn XPR36), FOXP3-6His immobilized on GLM chip, peptide 1-20 µM injected; ratio to p60 (SEQ ID NO: 1)
Sequence (Q9BZS1 other isoform, or with tags, fused parts or gaps): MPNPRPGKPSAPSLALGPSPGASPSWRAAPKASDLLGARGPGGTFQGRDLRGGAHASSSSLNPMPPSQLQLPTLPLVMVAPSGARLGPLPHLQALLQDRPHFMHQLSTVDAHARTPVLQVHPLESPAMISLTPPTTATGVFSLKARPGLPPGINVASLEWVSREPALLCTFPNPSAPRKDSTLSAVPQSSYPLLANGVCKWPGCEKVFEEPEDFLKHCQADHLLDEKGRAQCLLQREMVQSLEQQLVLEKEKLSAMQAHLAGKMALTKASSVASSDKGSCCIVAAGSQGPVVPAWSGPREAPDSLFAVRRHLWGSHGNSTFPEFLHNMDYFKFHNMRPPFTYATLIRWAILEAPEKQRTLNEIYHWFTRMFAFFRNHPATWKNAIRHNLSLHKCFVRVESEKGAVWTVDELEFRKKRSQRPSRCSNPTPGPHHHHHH

Binder	Ratio binding Peptide/p60 (fold change)
B3	1.4 fold change
B1	3.7 fold change
B4	4.9 fold change
B5	13 fold change
B6	2.2 fold change
B7	4.1 fold change
B8	2.2 fold change
B9	3.2 fold change
B10	2.2 fold change
B11	3.3 fold change
B12	4.1 fold change
B13	1.3 fold change
B14	25.3 fold change
B15	2.8 fold change
B16	5 fold change
B17	1.9 fold change
B18	1.3 fold change
B19	3.3 fold change

Binder	Ratio binding Peptide/p60 (fold change)
B20	1.4 fold change
B21	3 fold change
B22	4.6 fold change
B23	4 fold change
B24	3.3 fold change
B25	1.4 fold change
B2	3.2 fold change
B26	1.3 fold change
B27	3.7 fold change
B28	2.6 fold change
B29	21.4 fold change
B30	2.4 fold change
B31	1.4 fold change
B32	1.1 fold change
B33	1.4 fold change
B34	3.7 fold change
B35	1.4 fold change
